According to PMC1369289:

T1: JunD selected fragment (Mus musculus, UniProt P15066 262-325)
T1 sequence: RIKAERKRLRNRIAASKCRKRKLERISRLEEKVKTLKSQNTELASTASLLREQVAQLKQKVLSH

T2: JunB selected fragment (Mus musculus, UniProt P09450 265-328)
T2 sequence: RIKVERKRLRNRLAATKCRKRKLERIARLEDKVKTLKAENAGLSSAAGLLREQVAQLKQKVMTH

B1: TRE EMSA probe (dsDNA)
DNA 1: TTCTCCTATGACTCATCCAT
DNA 2: AATGGATGAGTCATAGGAGA
B2: TRE bait DNA (dsDNA)
DNA 1: TGATGACTCATCTCCTATGACTCATCCATTGCATGACTCAGACTTGATGAGTCAGCCGAGCATGAGTCAGACACCTTGCCTGAGCTCAGA
DNA 2: TTCTGAGCTCAGGCAAGGTGTCTGACTCATGCTCGGCTGACTCATCAAGTCTGAGTCATGCAATGGATGAGTCATAGGAGATGAGTCATCA

Columns and labels:
JunD selected fragment = biological target: T1, JunD selected fragment; assay: EMSA
JunB selected fragment = biological target: T2, JunB selected fragment; assay: EMSA
c-Jun selected fragment = c-Jun selected fragment (Mus musculus, UniProt P05627 255-313); assay: EMSA
Chain of c-Jun selected fragment (P05627 255-313): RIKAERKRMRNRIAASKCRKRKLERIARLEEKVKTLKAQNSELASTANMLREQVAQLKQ

[1] = biological target: c-Fos model fragment;c-Jun model fragment (Mus musculus?;Mus musculus?, UniProt P01101;P05627 118-212;237-334, |); assay: mRNA display affinity selection, qPCR
Chain of c-Fos model fragment;c-Jun model fragment (P01101 118-212, chain 1 of 2): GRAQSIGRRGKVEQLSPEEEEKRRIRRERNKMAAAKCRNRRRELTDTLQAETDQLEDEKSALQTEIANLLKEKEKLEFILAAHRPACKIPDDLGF
Chain of c-Fos model fragment;c-Jun model fragment (P05627 237-334, chain 2 of 2): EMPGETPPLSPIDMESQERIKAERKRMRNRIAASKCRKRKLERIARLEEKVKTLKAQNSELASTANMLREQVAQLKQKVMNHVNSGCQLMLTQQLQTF

Binder	binding result (JunD selected fragment)	binding result (JunB selected fragment)	binding result (c-Jun selected fragment)	binding signal [1]
B1	binds	binds	binds	–
B2	–	–	–	~100 fold enrichment
